Data taken from patent publication US20190023745A1.

What was measured:
[1] = target: Zika virus H/PF/2013 envelope (E) protein, on virus particles (Zika virus strain H/PF/2013); experiment: cell-based or functional assay
[2] = target: Zika virus MR766 envelope (E) protein, on virus particles (Zika virus strain MR766) (UniProt Q32ZE1); experiment: cell-based or functional assay

**Q.** EDE1 C10 monoclonal antibody was tested. Which PRNT50 (plaque reduction neutralization test, BHK-21 cells) [1] did it give?
**A.** 0.024 µg/mL

**Q.** What about the EC50, neutralization in Vero cells [2] of the same substance?
**A.** 0.34 ng/mL

**Q.** How did the EC50, neutralization in Vero cells [2] turn out when EDE1 C8 monoclonal antibody was run?
**A.** 0.89 ng/mL
